# How the values were obtained:
# [1] = biological target: recombinant Flag tag_GFP_tev_hmutCALR Type 1 (human); assay: HTRF competition against the mutCALR/MPL complex
# [2] = biological target: Human Type 1 mutCALR (human); assay: cell-based or functional assay
concentration at which some signal inhibition was seen [1],IC50 of inhibition of cell proliferation (BaF3 cells expressing MPL/mutCALR Type 1) [2],Substance
> 100 nM,,CAL2 antibody (Dianova)
,> 60 µg/mL,"AB1: CAL2 antibody, Dianova"

# From patent US20230272055A1, “ANTI-MUTANT CALRETICULIN (CALR) ANTIBODIES AND USES THEREOF” (Incyte Corporation, priority 2021, published 2023)
